Measured values: article PMC2175353
Where two headings read alike, the source gives them in different places.

Experiments:
[1] = target: T1, v-Myb AMV (bacterial, pVM2028) (avian myeloblastosis virus (AMV), UniProt P01104 1-382); assay: EMSA
[2] = target: T1, v-Myb AMV (bacterial, pVM2028); assay: EMSA; remark: listed apart in the source

T1 sequence (P01104 whole entry): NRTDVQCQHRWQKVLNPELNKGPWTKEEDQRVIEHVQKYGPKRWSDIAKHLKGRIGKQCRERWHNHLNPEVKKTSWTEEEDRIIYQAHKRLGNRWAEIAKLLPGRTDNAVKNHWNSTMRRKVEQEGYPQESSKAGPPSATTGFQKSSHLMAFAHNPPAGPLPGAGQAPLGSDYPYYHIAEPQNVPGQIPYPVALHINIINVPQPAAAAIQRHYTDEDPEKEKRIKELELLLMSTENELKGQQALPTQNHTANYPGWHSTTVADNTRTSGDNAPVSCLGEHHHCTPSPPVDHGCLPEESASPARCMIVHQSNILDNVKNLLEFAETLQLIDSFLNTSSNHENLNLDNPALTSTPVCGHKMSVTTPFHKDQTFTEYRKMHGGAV

B1: mimA (mim-1 promoter Myb site A) (dsDNA)
DNA 1: GCTCTAAAAAACCGTTATAATGTACAGATATCTT
DNA 2: AAGATATCTGTACATTATAACGGTTTTTTAGAGC
[1]
  binding result: binds

B2: MBS3wt (Myb site 3, lysozyme -2.7 kb enhancer) (dsDNA)
DNA 1: GGCTGGGAATATTTCTGTTTGACCACCATGGAG
DNA 2: CTCCATGGTGGTCAAACAGAAATATTCCCAGCC
[2]
  binding result: no binding
